Measured values from article PMC9712074 (Cell Reports, 2022).

Target: SARS-CoV-2 Omicron BA.1 RBD (SARS-CoV-2 Omicron BA.1, strain)

B1: BD55-3152 (antibody, V domains shown)
VH: QVQLVQSGAEVKKPGASVIVSCKASGYRFISHYIHWVRQAPGQGLEWMGKIDPSGRGTTYAQKLQGRVSVTRDTSTSSVYMALSGLRSDDTAVYYCARDRFPLSDPYVWGSPLGGLDVWGQGTTVIVSS
VL: SYDLTQPPSVSVSPGQTARITCSGDALPSQYVYWYQQRPGQAPVLVMYKDSERPPGIPERFSGSTSGTTATLTITGVQAEDEADYYCQSADASTTYHVFGGGTKVTVV
binding result: binds

B2: BD55-3372 (antibody, V domains shown)
VH: EVHLVESGGGLVKPGGSLRLSCAASGFTFSNYAMNWVRQAPGKGLQWVSSITGSSSFIFYADSVKGRFTIVRDNAQNSLYLQMNSLRDEDTAVYYCARERDDYDTRLDWGQGTLVTVSS
VL: QPMLTQPPSVSGAPGQTVTISCVGSSSNIGAGYEVHWYQQLPGTAPKRLLSGNSDRPSGVPDRFSGSKSGTSASLAITGLQADDEADYYCQSYDSSLSLSAVVFGGGTKLTVL
binding result: binds
